Assay [1] deals with macrophages co-cultured with Toledo lymphoma cells. Put plainly: qRT-PCR of macrophages sorted from Toledo lymphoma co-cultures. The class given is cell-based, human. To be noted: qRT-PCR on macrophages isolated by FACS from Toledo co-cultures. On the procedure: FIG. 8D: Macrophage:Toledo lymphoma co-cultures were harvested 2 hours into phagocytosis assays in the presence of rituximab ([…]), SIRPα-Fc-CD40L ([…]), or the combination of both agents. Macrophages were isolated by CD11b+FACS, RNA was prepared, cDNA synthesized, and gene expression (IFNa1, IFNb1, CD80, and CD86) assessed by qRT-PCR. Fold change was calculated using DDCT and values obtained from the housekeeping gene ACTB, and the corresponding values from untreated samples. […] After 2 hours, co-cultures were isolated from tissue culture vessels and were stained with a fluorescently conjugated CD11b antibody to discriminate macrophages. Cells were then assessed by flow cytometry for the co-localization of fluorescent signal from both cells types. […] After 24-hours type I interferon induced luminescence was assessed using a luminometer. The maximum luminescence (RLU) from each experiment was set to 1, and all other samples were normalized accordingly. […]
RNA was prepared from macrophages isolated using fluorescent activated cell sorting (FACS) from SIRPα-Fc-CD40L/Rituximab treated co-cultures macrophages and Toledo lymphoma cells. The RNA was assessed by gRT-PCR for expression of IFNα1 and IFNβ1, and the macrophage activation markers CD80 and CD86.

Assay [2] has as its target FcγR-Ia (Homo sapiens, UniProt P12314). Put plainly: SPR. (Surface plasmon resonance follows binding to a sensor surface in real time, without labels.)
Assay [3] concerns the target recombinant human CD40 (human) (UniProt P25942). The experiment in a line: SPR.
Assay [4] deals with tumors. Put plainly: Mouse tumor model, SIRPα-Fc-OX40L and checkpoint antibodies (Example 14).
The target in assay [5] is T1, recombinant mouse CD47 (mouse, UniProt Q61735 19-140, limits assumed).
T1 construct: also called murine CD47
T1 sequence (looked up): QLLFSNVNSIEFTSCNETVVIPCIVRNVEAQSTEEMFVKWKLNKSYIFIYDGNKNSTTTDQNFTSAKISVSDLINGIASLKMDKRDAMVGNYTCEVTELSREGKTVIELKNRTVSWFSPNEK
The experiment in a line: dual ELISA: coat mCD47-Fc, titrated mSIRPα-Fc-CD40L, detect mCD40-His, tertiary anti-his-HRP, OD450. Signal needs both CD47 and CD40 to be bound. (In general: An ELISA detects its analyte on a solid surface through an enzyme-linked reagent.)

Assay [6] addresses T2, recombinant mouse CD40 (mouse, UniProt P27512 20-193, limits assumed).
T2 construct: also called murine CD40
Put plainly: dual ELISA: coat mCD47-Fc, titrated mSIRPα-Fc-CD40L, detect mCD40-His, tertiary anti-his-HRP, OD450. This is the same curve as the CD47 row. mCD40-His is the detecting receptor.

Experimental findings from patent publication US20200071380A1, “COMBINATION THERAPIES COMPRISING SIRP ALPHA-BASED CHIMERIC PROTEINS” (Shattuck Labs, Inc., priority 2018, published 2020) are described below.

A word on the Kd: it is the free concentration of one partner at which half of the binding sites on the other are occupied at equilibrium, for simple one-to-one binding. As usually defined, the koff is the rate constant with which the complex falls apart. As usually defined, the kon is the rate constant with which the complex forms. Usually EC50 stands for the concentration needed to bring the measured effect to its halfway point.

Where “and” joins values, the source holds several entries; their conditions need not be identical. Identical values can stand only once.

Chain of FcγR-Ia (P12314 16-288 limits assumed): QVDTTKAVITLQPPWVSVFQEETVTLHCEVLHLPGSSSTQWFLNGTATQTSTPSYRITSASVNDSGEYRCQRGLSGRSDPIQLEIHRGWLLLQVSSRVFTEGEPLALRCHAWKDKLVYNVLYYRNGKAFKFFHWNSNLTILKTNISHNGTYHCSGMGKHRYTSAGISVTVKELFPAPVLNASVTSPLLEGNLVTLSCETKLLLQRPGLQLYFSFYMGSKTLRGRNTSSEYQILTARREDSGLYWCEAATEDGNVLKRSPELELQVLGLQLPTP
Chain of recombinant human CD40 (human) (P25942 21-193 limits assumed): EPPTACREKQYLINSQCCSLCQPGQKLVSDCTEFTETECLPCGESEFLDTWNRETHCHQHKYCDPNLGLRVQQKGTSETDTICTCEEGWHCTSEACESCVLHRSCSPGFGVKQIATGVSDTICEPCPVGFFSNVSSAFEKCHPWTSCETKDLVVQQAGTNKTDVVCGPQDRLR
T2 sequence (P27512 20-193 limits assumed): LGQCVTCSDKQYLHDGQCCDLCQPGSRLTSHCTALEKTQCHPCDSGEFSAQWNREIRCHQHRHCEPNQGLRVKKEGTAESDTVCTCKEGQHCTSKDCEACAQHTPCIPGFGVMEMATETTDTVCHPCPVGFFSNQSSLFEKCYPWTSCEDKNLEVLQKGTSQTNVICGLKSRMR

For the molecule “rituximab: anti-CD20 antibody [reference compound]”, in assay [1], the “macrophage activation (CD80, CD86) and expression of type I interferon genes (IFNα1, IFNβ1)” value is “induced macrophage activation and the expression of type I interferon genes”.
In assay [2], IgG1 (antibody) had a Kd of 8.42 nM, a koff of 0.000156 s⁻¹ and a kon of 18400 M⁻¹ s⁻¹.
As to Fc-CD40L (Fc fusion), in assay [3], the Kd was determined as 1.15 nM, the dissociation rate constant (koff) is 0.000351 s⁻¹ and the on-rate constant (kon) turned out to be 304000 M⁻¹ s⁻¹.
With “SIRPα(CD172a)-Fc-OX40L: Chimeric protein: ECD of SIRPα and ECD of OX40L fused via an antibody Fc domain (human sequence SEQ ID NO: 61)”, the tumor size entry in assay [4] (mouse, in vivo) is listed as “effective in reducing tumor size”. Further, the survival result in assay [4] (sixteenth day following treatment) is given as “had any survivors by the sixteenth day following treatment”.

B1: murine SIRPα-Fc-CD40L chimeric protein (Fc fusion)
chain: KELKVTQPEKSVSVAAGDSTVLNCTLTSLLPVGPIRWYRGVGPSRLLIYSFAGEYVPRIRNVSDTTKRNNMDFSIRISNVTPADAGIYYCVKFQKGSSEPDTEIQSGGGTEVYVLAKPSPPEVSGPADRGIPDQKVNFTCKSHGFSPRNITLKWFKDGQELHPLETTVNPSGKNVSYNISSTVRVVLNSMDVNSKVICEVAHITLDRSPLRGIANLSNFIRVSPTVKVTQQSPTSMNQVNLTCRAERFYPEDLQLIWLENGNVSRNDTPKNLTKNTDGTYNYTSLFLVNSSAHREDVVFTCQVKHDQQPAITRNHTVLGFAHSSDQGSMQTFPDNNATHNWNHRRLDKVEEEVNLHEDFVFIKKLKRCNKGEGSLSLLNCEEMRRQFEDLVKDITLNKEEKKENSFEMQRGDEDPQIAAHVVSEANSNAASVLQWAKKGYYTMKSNLVMLENGKQLTVKREGLYYVYTQVTFCSNREPSSQRPFIVGLWLKPSSGSERILLKAANTHSSSQLCEQQSVHLGGVFELQAGASVFVNVTEASQVIHRVGFSSFGLLKL
In the case of B1, the EC50 is 7.37 nM and 8.73 nM in assay [5]; 7.37 nM and 8.73 nM in assay [6].
